The values that follow come from patent publication US6420338B1, “Inhibition of the Src kinase family pathway as a method of treating HBV infection and hepatocellular carcinoma” (New York University Medical Center, priority 1997, dated 2002).

In assay [1] the test system is WHV. As to the kind of experiment: WHV replication in Chang cells, Southern blot of intracellular core-associated viral DNA. It counts as cell-based, Woodchuck Hepatitis B Virus. To be noted: Chang cells co-transfected with wtWHV; 3 days post-transfection. On the procedure:
FIG. 7. WHx requires activation of Src family kinase for WHV replication. Chang cells were co-transfected with 20 μg PCWHV, wtWHV, wtWHV and RasDN (dominant-negative) (10 μg), or wtWHV and Csk (10 μg). Three days post-transfection viral core-associated DNA was isolated, purified, and subjected to Southern blot analysis using a full-length ^32P-labeled WHV genomic probe.
Chang cells were transfected with infectious WHV clones, (2×10 cm plates) were washed twice with PBS and lysed in 500 μl lysis buffer/10 cm plate (20 mM Tris HCl pH 7.5, 1 mM EDTA, 100 mM NaCl, 0.5% NP-40) for 10-15 minutes. Lysates were centrifuged at 12,000×g for 30 minutes, MgCl2 was adjusted to 10 mM, DNAseI (Boehringer Mannheim) was added to 20 U /ml and the lysates were incubated at 37° C. for 2 hours. Following DNAse I treatment, the lysates were centrifuged for 5 min at 12,000×g, layered onto a 20% sucrose cushion (300 μl of 20% sucrose in 20 mM Tris HCl pH 8.0, 150 mM NaCl) and centrifuged for 178,000×g for 3 hours at 20° C. […]
Chang cells were co-transfected with plasmids encoding either wtWHV, pCWHV, wtWHV and RasDN, or wtWHV and Csk, intracellular core-associated viral DNA was isolated 3 days post-transfection, and purified viral DNA analyzed by Southern blot hybridization as described above (FIG. 7).

The test system of assay [2] is N-Myc. As to the kind of experiment: N-Myc immunoblot of nuclear extracts of Chang cells expressing HBx. It counts as cell-based. To be noted: Chang cells co-expressing HBx; serum-starved 20 hours. On the procedure:
Cells were lysed in 1% Triton, 20 mM Hepes pH 7.4, 150 mM NaCl, 10% Glycerol, 1 mM Na3VO4, 50 mM NaF, 1 mM PMSF, 10 μg/ml aprotinin, and 10 μg/ml leupeptin. Equal amounts of protein were immunoprecipitated on ice for 2 hours and the immune complexes were collected by incubation with protein A-agarose (Santa Cruz) for 60 minutes at 4° C. Immunoprecipitates were washed three times with HNTG (20 mM Hepes pH 7.4, 150 mM NaCl, 0.1% Triton, and 10% Glycerol), resuspended in Laemmli sample buffer, heated to 95° C. for 10 minutes, resolved by electrophoresis on SDS-polyacrylamide gels, and immunoblotted to nitrocellulose using standard techniques (Harlow and Lane, 1988, Antibodies: A Laboratory Manual (Cold Spring Harbor, N.Y.; CSH Laboratory Press)). Immunoblots were visualized using the ECL chemiluminescence system (Amersham).
Nuclear extracts were prepared according to a modified Dignam protocol (Su and Schneider, 1996). Cell pellets were resuspended in 250 μl of cold Buffer A (10 mM Hepes pH 7.9, 1.5 mM MgCl2, 10 mM KCl, 0.5 mM DTT, 1 mM PMSF, 10 μg/ml leupeptin and 10 μg/ml aprotinin), swollen on ice for 10 min, vortexed for 10 sec, and centrifuged for 10 sec at 12,000×g. […]
For orientation: Immunoblotting shows a protein as a band on a membrane.

B1: Csk: Csk (carboxyl-terminal Src kinase), a specific physiologic inhibitor of Src kinase, expressed from a CMV promoter plasmid (protein, UniProt P41240 2-450, looked up)
Tyrosine-protein kinase CSK: SAIQAAWPSGTECIAKYNFHGTAEQDLPFCKGDVLTIVAVTKDPNWYKAKNKVGREGIIPANYVQKREGVKAGTKLSLMPWFHGKITREQAERLLYPPETGLFLVRESTNYPGDYTLCVSCDGKVEHYRIMYHASKLSIDEEVYFENLMQLVEHYTSDADGLCTRLIKPKVMEGTVAAQDEFYRSGWALNMKELKLLQTIGKGEFGDVMLGDYRGNKVAVKCIKNDATAQAFLAEASVMTQLRHSNLVQLLGVIVEEKGGLYIVTEYMAKGSLVDYLRSRGRSVLGGDCLLKFSLDVCEAMEYLEGNNFVHRDLAARNVLVSEDNVAKVSDFGLTKEASSTQDTGKLPVKWTAPEALREKKFSTKSDVWSFGILLWEIYSFGRVPYPRIPLKDVVPRVEKGYKMDAPDGCPPAVYEVMKNCWHLDAAMRPSFLQLREQLEHIKTHELHL
Regarding B1, the “effect on WHV replication (viral DNA replicative intermediates)” value in assay [1] is listed as “completely abolished”. In addition, the “effect on increase in N-Myc protein by HBx” value in assay [2] is “impaired”.
